Test results published in IntAct's records for PubMed 29340707.

B1: Serine/threonine-protein kinase VRK1 (Homo sapiens), Q99986 (parent)
chain: MPRVKAAQAGRQSSAKRHLAEQFAVGEIITDMAKKEWKVGLPIGQGGFGCIYLADMNSSESVGSDAPCVVKVEPSDNGPLFTELKFYQRAAKPEQIQKWIRTRKLKYLGVPKYWGSGLHDKNGKSYRFMIMDRFGSDLQKIYEANAKRFSRKTVLQLSLRILDILEYIHEHEYVHGDIKASNLLLNYKNPDQVYLVDYGLAYRYCPEGVHKEYKEDPKRCHDGTIEFTSIDAHNGVAPSRRGDLEILGYCMIQWLTGHLPWEDNLKDPKYVRDSKIRYRENIASLMDKCFPEKNKPGEIAKYMETVKLLDYTEKPLYENLRDILLQGLKAIGSKDDGKLDLSVVENGGLKAKTITKKRKKEIEESKEPGVEDTEWSNTQTEEAIQTRSRTRKRVQK

Variants of: B1
Details: with aurkb_human AURKB

Row | Variant | effect of a mutation on the interaction
1 | MPRVKAAQAGRQSSAKRHLAEQFAVGEIITDMAKKEWKVGLPIGQGGFGCIYLADMNSSESVGSDAPCVVKVEPSDNGPLFTELKFYQRAAKPEQIQKWIRTRKLKYLGVPKYWGSGLHDKNGKSYRFMIMDRFGSDLQKIYEANAKRFSRKTVLQLSLRILDILEYIHEHEYVHGDIEASNLLLNYKNPDQVYLVDYGLAYRYCPEGVHKEYKEDPKRCHDGTIEFTSIDAHNGVAPSRRGDLEILGYCMIQWLTGHLPWEDNLKDPKYVRDSKIRYRENIASLMDKCFPEKNKPGEIAKYMETVKLLDYTEKPLYENLRDILLQGLKAIGSKDDGKLDLSVVENGGLKAKTITKKRKKEIEESKEPGVEDTEWSNTQTEEAIQTRSRTRKRVQK [K179E] | increasing interaction strength

Variants of: B1
Details: with aurkb_human AURKB
Remark: another data set of the same source

Row | Variant | effect of a mutation on the interaction
2 | MPRVKAAQAGRQSSAKRHLAEQFAVGEIITDMAKKEWKVGLPIGQGGFGCIYLADMNSSESVGSDAPCVVKVEPSDNGPLFTELKFYQRAAKPEQIQKWIRTRKLKYLGVPKYWGSGLHDKNGKSYRFMIMDRFGSDLQKIYEANAKRFSRKTVLQLSLRILDILEYIHEHEYVHGDIEASNLLLNYKNPDQVYLVDYGLAYRYCPEGVHKEYKEDPKRCHDGTIEFTSIDAHNGVAPSRRGDLEILGYCMIQWLTGHLPWEDNLKDPKYVRDSKIRYRENIASLMDKCFPEKNKPGEIAKYMETVKLLDYTEKPLYENLRDILLQGLKAIGSKDDGKLDLSVVENGGLKAKTITKKRKKEIEESKEPGVEDTEWSNTQTEEAIQTRSRTRKRVQK [K179E] | disrupting interaction strength
